Measured values taken from patent US20050058747.

Columns and labels:
[1] = target: T1, soybean Bowman-Birk inhibitor (UniProt P01055)
T1 sequence: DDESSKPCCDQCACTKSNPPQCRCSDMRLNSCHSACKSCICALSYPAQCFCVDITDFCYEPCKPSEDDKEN

Soybean agglutinin (SBA) = Soybean agglutinin (SBA) (UniProt P05046)
[2] = target: T2, soybean Kunitz trypsin inhibitor (UniProt P01070)
T2 sequence: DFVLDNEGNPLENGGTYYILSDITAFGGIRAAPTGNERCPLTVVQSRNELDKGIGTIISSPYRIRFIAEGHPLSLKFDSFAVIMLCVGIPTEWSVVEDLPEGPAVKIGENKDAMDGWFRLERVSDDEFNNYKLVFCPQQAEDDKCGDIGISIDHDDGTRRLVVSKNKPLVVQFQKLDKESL

Sequence of Soybean agglutinin (SBA) (P05046 33-285): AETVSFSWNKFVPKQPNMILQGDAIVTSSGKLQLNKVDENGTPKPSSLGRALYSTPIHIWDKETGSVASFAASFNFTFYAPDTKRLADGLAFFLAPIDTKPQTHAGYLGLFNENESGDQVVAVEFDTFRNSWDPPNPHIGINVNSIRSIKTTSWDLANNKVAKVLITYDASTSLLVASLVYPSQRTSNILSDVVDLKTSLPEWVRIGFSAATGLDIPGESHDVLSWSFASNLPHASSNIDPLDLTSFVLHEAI

With “protease from Nocardiopsis sp. NRRL 18262” the Percentage degradation of isolated soy proteins (Soybean beta-conglycinin) was 95%, the Percentage degradation of isolated soy proteins (Soybean glycinin) was 98% and the Percentage degradation of isolated soy proteins [1] was 35%. The Percentage degradation of isolated soy proteins (Soybean agglutinin (SBA)) was 100% and the Percentage degradation of isolated soy proteins [2] was 94%.
